Residue numbers refer to the chain shown, from its start. In names and notes the source's numbering stands. Values belong to the molecule of their own block, whether it stands above or below them.
How the values were obtained:
[1] = target: T1, CrArl13B 18-278 (Chlamydomonas reinhardtii, UniProt A8INQ0); experiment: nucleotide loading (HPLC) and GEF activity of the loaded protein; assay type: binding; conditions: 5 mM MgCl2, pH 7.5, 20°C
T1 construct: gene ARL13; residues 18-278 (G-domain plus C-terminal helix), expressed in E. coli as GST fusion
T1 sequence (A8INQ0 18-278): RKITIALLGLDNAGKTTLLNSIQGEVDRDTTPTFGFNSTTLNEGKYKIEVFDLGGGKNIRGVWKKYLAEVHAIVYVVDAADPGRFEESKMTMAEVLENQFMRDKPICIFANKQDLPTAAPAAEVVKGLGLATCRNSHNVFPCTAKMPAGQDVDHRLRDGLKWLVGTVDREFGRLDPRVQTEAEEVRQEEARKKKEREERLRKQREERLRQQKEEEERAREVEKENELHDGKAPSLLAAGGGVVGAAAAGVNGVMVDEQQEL

[2] = target: T2, CrArl13B-CrArl3 complex (CrArl3 nucleotide site) (Chlamydomonas reinhardtii, UniProt A8ISN6); experiment: X-ray crystal structure […] Å; assay type: binding; conditions: Mg2+; nucleotide site of CrArl3; post-nucleotide-exchange state
T2 construct: gene ARL3; crystal complex, one in asymmetric unit; last 58 residues of CrArl13B not visible; from E. coli; with ADP-ribosylation factor-like protein 13B
T2 sequence (A8ISN6 2-177 limits assumed): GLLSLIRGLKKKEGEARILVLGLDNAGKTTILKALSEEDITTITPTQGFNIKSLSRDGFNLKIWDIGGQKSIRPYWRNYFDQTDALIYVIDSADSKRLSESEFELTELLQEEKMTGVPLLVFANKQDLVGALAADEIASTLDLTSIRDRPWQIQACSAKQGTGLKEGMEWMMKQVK
T2 sequence (A8INQ0 18-278 partner): T1 sequence (A8INQ0 18-278)

[3] = target: T3, CrArl13B-CrArl3 complex (CrArl13B nucleotide site) (Chlamydomonas reinhardtii, UniProt A8INQ0); experiment: X-ray crystal structure […] Å; assay type: binding; conditions: Mg2+; nucleotide site of CrArl13B
T3 construct: gene ARL13; crystal complex, one in asymmetric unit; last 58 residues of CrArl13B not visible; from E. coli; with ADP-ribosylation factor-like protein 3
T3 sequence (A8INQ0 18-278): T1 sequence (A8INQ0 18-278)
T3 sequence (A8ISN6 2-177 partner): T2 sequence (A8ISN6 2-177 limits assumed)

[4] = target: CrArl3 (Chlamydomonas reinhardtii)
[5] = target: CrArl3 (Chlamydomonas reinhardtii); remark: listed apart in the source
[6] = target: CrArl3 (Chlamydomonas reinhardtii); remark: listed apart in the source
[7] = target: CrArl3 D146R (Chlamydomonas reinhardtii)
[8] = target: CrArl3 D103R (Chlamydomonas reinhardtii)

Molecule: Nc1nc2c(ncn2[C@@H]2O[C@H](COP(=O)(O)OP(=O)(O)O)[C@@H](O)[C@H]2O)c(=O)[nH]1 [GDP]
nucleotide loading (HPLC) and GEF activity of the loaded protein ([1]; GDP-bound state compared by GEF activity on CrArl3·mantGDP): CrArl13B preloaded with GDP, GTP, or GppNHp was used to analyze the exchange activity

Molecule: Nc1nc2c(ncn2[C@@H]2O[C@H](COP(=O)(O)OP(=O)(O)NP(=O)(O)O)[C@@H](O)[C@H]2O)c(=O)[nH]1 [GppNHp]
X-ray crystal structure 2.5 Å [2]: GppNHp was clearly visible in both active sites
X-ray crystal structure 2.5 Å [3]: GppNHp was clearly visible in both active sites

Molecule: Nc1nc2c(ncn2[C@@H]2O[C@H](COP(=O)(O)OP(=O)(O)OP(=O)(O)O)[C@@H](O)[C@H]2O)c(=O)[nH]1 [GTP]
nucleotide loading (HPLC) and GEF activity of the loaded protein ([1]; GTP-bound state compared by GEF activity on CrArl3·mantGDP): CrArl13B preloaded with GDP, GTP, or GppNHp was used to analyze the exchange activity

Kobs of nucleotide release from CrArl3 wt with 5 µM CrArl13B △203 (GEF assay, deletion constructs) [4]: 0.0001 s⁻¹
B1: CrArl13B △203 (18–202) (domain or fragment)
chain: RKITIALLGLDNAGKTTLLNSIQGEVDRDTTPTFGFNSTTLNEGKYKIEVFDLGGGKNIRGVWKKYLAEVHAIVYVVDAADPGRFEESKMTMAEVLENQFMRDKPICIFANKQDLPTAAPAAEVVKGLGLATCRNSHNVFPCTAKMPAGQDVDHRLRDGLKWLVGTVDREFGRLDPRVQTEAEEV

Kobs of nucleotide release from CrArl3 wt with 5 µM CrArl13B △243 (GEF assay, deletion constructs) [4]: 0.0045 s⁻¹
B2: CrArl13B △243 (18–242) (domain or fragment)
chain: RKITIALLGLDNAGKTTLLNSIQGEVDRDTTPTFGFNSTTLNEGKYKIEVFDLGGGKNIRGVWKKYLAEVHAIVYVVDAADPGRFEESKMTMAEVLENQFMRDKPICIFANKQDLPTAAPAAEVVKGLGLATCRNSHNVFPCTAKMPAGQDVDHRLRDGLKWLVGTVDREFGRLDPRVQTEAEEVRQEEARKKKEREERLRKQREERLRQQKEEEERAREVEKEN

Kobs of nucleotide release from CrArl3 wt with 5 µM CrArl13B △213 (GEF assay, deletion constructs) [4]: 0.0001 s⁻¹
B3: CrArl13B △213 (18–212) (domain or fragment)
chain: RKITIALLGLDNAGKTTLLNSIQGEVDRDTTPTFGFNSTTLNEGKYKIEVFDLGGGKNIRGVWKKYLAEVHAIVYVVDAADPGRFEESKMTMAEVLENQFMRDKPICIFANKQDLPTAAPAAEVVKGLGLATCRNSHNVFPCTAKMPAGQDVDHRLRDGLKWLVGTVDREFGRLDPRVQTEAEEVRQEEARKKKE

KM of the GEF reaction (kobs of mantGDP release from 500 nM CrArl3 against GEF concentration) for CrArl13B·GDP [5]: 155 µM
KM of the GEF reaction (kobs of mantGDP release from 500 nM CrArl3 against GEF concentration) for CrArl13B·GTP [5]: 1.1 µM
Kobs of mantGDP release from 500 nM CrArl3 with 5 µM CrArl13B·GDP (GEF assay) [6]: 0.0009 s⁻¹
Kobs of mantGDP release from 500 nM CrArl3 with 5 µM CrArl13B·GTP (GEF assay) [6]: 0.006 s⁻¹
Kobs of mantGDP release from 500 nM CrArl3 with 5 µM CrArl13B·GppNHp (GEF assay) [6]: 0.0078 s⁻¹
Kobs of nucleotide release from CrArl3 D146R·mantGppNHp with 5 µM CrArl13B wt (GEF assay) [7]: 0.00014 s⁻¹
Kobs of nucleotide release from 500 nM CrArl3·mantGppNHp with 5 µM CrArl13B wt (GEF assay, switch interface mutants) [4]: 0.0091 s⁻¹
Kobs of nucleotide release from CrArl3 wt with 5 µM CrArl13B 18-278 (GEF assay, deletion constructs) [4]: 0.0066 s⁻¹
Kobs of nucleotide release from CrArl3 wt·mantGppNHp with 5 µM CrArl13B wt (GEF assay, charge reversal interface mutants) [4]: 0.0085 s⁻¹
Kobs of nucleotide release from CrArl3 D103R·mantGppNHp with 5 µM CrArl13B wt (GEF assay) [8]: 0.00014 s⁻¹
B4: CrArl13B^18-–278 (domain or fragment)
chain: T1 sequence (A8INQ0 18-278)

Kobs of nucleotide release from CrArl3 wt·mantGppNHp with 5 µM CrArl13B H154W (GEF assay) [4]: 0.0088 s⁻¹
B5: CrArl13B H154W (18-278) (domain or fragment)
chain: T1 sequence (A8INQ0 18-278) with H137W

Kobs of nucleotide release from 500 nM CrArl3·mantGppNHp with 5 µM CrArl13B F51A (GEF assay) [4]: 0.002 s⁻¹
B6: CrArl13B F51A (18-278) (domain or fragment)
chain: T1 sequence (A8INQ0 18-278) with F34A

Kobs of nucleotide release from 500 nM CrArl3·mantGppNHp with 5 µM CrArl13B Y83A (GEF assay) [4]: 0.0009 s⁻¹
B7: CrArl13B Y83A (18-278) (domain or fragment)
chain: T1 sequence (A8INQ0 18-278) with Y66A

Kobs of nucleotide release from 500 nM CrArl3·mantGppNHp with 5 µM CrArl13B N75A (GEF assay) [4]: 0.0044 s⁻¹
B8: CrArl13B N75A (18-278) (domain or fragment)
chain: T1 sequence (A8INQ0 18-278) with N58A

Kobs of nucleotide release from 500 nM CrArl3·mantGppNHp with 5 µM CrArl13B D46A (GEF assay) [4]: 0.0041 s⁻¹
B9: CrArl13B D46A (18-278) (domain or fragment)
chain: T1 sequence (A8INQ0 18-278) with D29A

Kobs of nucleotide release from 500 nM CrArl3·mantGppNHp with 5 µM CrArl13B F53A (GEF assay) [4]: 0.00042 s⁻¹
B10: CrArl13B^F53A (18-278) (domain or fragment)
chain: T1 sequence (A8INQ0 18-278) with F36A

Kobs of nucleotide release from CrArl3 wt with 5 µM CrArl13B △220 (GEF assay, deletion constructs) [4]: 0.0011 s⁻¹
B11: CrArl13B △220 (18–219) (domain or fragment)
chain: RKITIALLGLDNAGKTTLLNSIQGEVDRDTTPTFGFNSTTLNEGKYKIEVFDLGGGKNIRGVWKKYLAEVHAIVYVVDAADPGRFEESKMTMAEVLENQFMRDKPICIFANKQDLPTAAPAAEVVKGLGLATCRNSHNVFPCTAKMPAGQDVDHRLRDGLKWLVGTVDREFGRLDPRVQTEAEEVRQEEARKKKEREERLRK

Kobs of nucleotide release from CrArl3 wt with 5 µM CrArl13B △233 (GEF assay, deletion constructs) [4]: 0.005 s⁻¹
B12: CrArl13B △233 (18–232) (domain or fragment)
chain: RKITIALLGLDNAGKTTLLNSIQGEVDRDTTPTFGFNSTTLNEGKYKIEVFDLGGGKNIRGVWKKYLAEVHAIVYVVDAADPGRFEESKMTMAEVLENQFMRDKPICIFANKQDLPTAAPAAEVVKGLGLATCRNSHNVFPCTAKMPAGQDVDHRLRDGLKWLVGTVDREFGRLDPRVQTEAEEVRQEEARKKKEREERLRKQREERLRQQKEEE

From PMC4868535, “A G-protein activation cascade from Arl13B to Arl3 and implications for ciliary targeting of lipidated proteins” (eLife, 2015)
